# Measurements taken from patent US20250213684A1 (Novartis, published 2025).
# Where a chain is given by its changes, count along the chain named. Several values for one entry are separate records, joined by “and”; a condition that tells them apart may be missing. Equal values may be shown once.
# B1: ABTIM3-hum02 (antibody, human IgG4 S228P, kappa, V domains shown)
# VH: QVQLVQSGAEVKKPGASVKVSCKASGYTFTSYNMHWVRQAPGQGLEWIGDIYPGSGDTSYNQKFKGRATMTADKSTSTVYMELSSLRSEDTAVYYCARVGGAFPMDYWGQGTLVTVSS
# VL: DIVLTQSPDSLAVSLGERATINCRASESVEYYGTSLMQWYQQKPGQPPKLLIYAASNVESGVPDRFSGSGSGTDFTLTISSLQAEDVAVYYCQQSRKDPSTFGGGTKVEIKR
# notes: Humanized
# B2: ABTIM3-hum01 (antibody, human IgG4 S228P, kappa, V domains shown)
# VH: B1 VH with S55N
# VL: B1 VL
# notes: Humanized
# B3: ABTIM3-hum03 (antibody, human IgG4 S228P, kappa)
# heavy: not shown
# light: DIVLTQSPDSLAVSLGERATINCRASESVEYYGTSLMQWYQQKPGQPPKLLIYAASNVESGVPDRFSGSGSGTDFTLTISSLQAEDVAVYYCQQSRKDPSTFGGGTKVEIKRTVAAPSVFIFPPSDEQLKSGTASVVCLLNNFYPREAKVQWKVDNALQSGNSQESVTEQDSKDSTYSLSSTLTLSKADYEKHKVYACEVTHQGLSSPVTKSFNRGEC
# notes: Humanized; Immobilized on Protein G beads and cross-linked with DSS in the HDx-MS experiment
# B4: ABTIM3-hum04 (antibody, human IgG4 S228P, kappa, V domains shown)
# VH: B1 VH with V37I, S55N, M70L
# VL: B1 VL with Y91F
# notes: Humanized
# B5: ABTIM3-hum05 (antibody, human IgG4 S228P, kappa, V domains shown)
# VH: B1 VH with V37I, M70L
# VL: B1 VL with Y91F
# notes: Humanized
# B6: ABTIM3-hum06 (antibody, human IgG4 S228P, kappa, V domains shown)
# VH: B1 VH with V37I, S55Q, M70L
# VL: B1 VL with Y91F
# notes: Humanized
# B7: ABTIM3-hum07 (antibody, human IgG4 S228P, kappa, V domains shown)
# VH: B1 VH with V37I, S55N, M70L
# VL: B1 VL
# notes: Humanized
# B8: ABTIM3-hum08 (antibody, human IgG4 S228P, kappa, V domains shown)
# VH: B1 VH with S55N
# VL: B1 VL with Y91F
# notes: Humanized
# B9: ABTIM3-hum11 (antibody, human IgG4 S228P, kappa, V domains shown)
# VH: B1 VH with A16S, I48M, S55N, A68V, M70I, L113T
# VL: AIQLTQSPSSLSASVGDRVTITCRASESVEYYGTSLMQWYQQKPGKAPKLLIYAASNVESGVPSRFSGSGSGTDFTLTISSLQPEDFATYFCQQSRKDPSTFGGGTKVEIKR
# notes: as for B3
# B10: ABTIM3-hum21 (antibody, human IgG1, kappa)
# heavy: not shown
# light: B3 light
# notes: Humanized
# B11: ABTIM3-hum09 (antibody, human IgG4 S228P, kappa, V domains shown)
# VH: B1 VH with A16S, I48M, S55N, A68V, M70I, L113T
# VL: EIVLTQSPATLSLSPGERATLSCRASESVEYYGTSLMQWYQQKPGQAPRLLIYAASNVESGIPARFSGSGSGTDFTLTISSLEPEDIAVYFCQQSRKDPSTFGGGTKVEIKR
# notes: Humanized
# B12: ABTIM3-hum10 (antibody, human IgG4 S228P, kappa, V domains shown)
# VH: EVQLVQSGAEVKKPGESLKISCKGSGYTFTSYNMHWVRQMPGKGLEWMGDIYPGNGDTSYNQKFKGQVTISADKSISTVYLQWSSLKASDTAMYYCARVGGAFPMDYWGQGTTVTVSS
# VL: B11 VL
# notes: Humanized
# B13: ABTIM3-hum12 (antibody, human IgG4 S228P, kappa, V domains shown)
# VH: B12 VH
# VL: B9 VL
# notes: Humanized
# Columns and labels:
# [1] = biological target: T1, TIM-3 (antigen; species and construct not stated for the assay) (UniProt Q8TDQ0 22-202, limits assumed); experiment: SPR (Biacore), run of May 1, 2014
# [2] = biological target: T1, TIM-3 (antigen; species and construct …); experiment: SPR (Biacore), run of May 30, 2014
# [3] = biological target: T1, TIM-3 (antigen; species and construct …); experiment: SPR (Biacore), run of Apr. 29, 2014
# [4] = biological target: T1, TIM-3 (antigen; species and construct …); experiment: SPR (Biacore), run of Apr. 7, 2014
# [5] = biological target: T1, TIM-3 (antigen; species and construct …); experiment: FACS competition binding against the parent murine ABTIM3; cells not named on the sheet
# cynoTIM-3/Fc [6] = biological target: T2, cynoTIM-3/Fc (cynomolgus monkey, UniProt A0A2K5U3G7 22-195); experiment: SPR (Biacore), run 2
# T2 sequence: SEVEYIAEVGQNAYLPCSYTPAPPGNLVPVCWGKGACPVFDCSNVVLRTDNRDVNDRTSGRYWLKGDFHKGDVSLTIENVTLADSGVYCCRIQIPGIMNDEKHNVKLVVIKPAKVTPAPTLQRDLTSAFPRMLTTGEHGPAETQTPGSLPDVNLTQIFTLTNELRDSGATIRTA
# ratTIM-3/Fc [7] = biological target: T3, ratTIM-3/Fc (rat, UniProt P0C0K5 22-194, limits assumed); experiment: SPR (Biacore), run 2
# T3 construct: also called rat TIM-3/Fc protein
# T3 sequence (looked up): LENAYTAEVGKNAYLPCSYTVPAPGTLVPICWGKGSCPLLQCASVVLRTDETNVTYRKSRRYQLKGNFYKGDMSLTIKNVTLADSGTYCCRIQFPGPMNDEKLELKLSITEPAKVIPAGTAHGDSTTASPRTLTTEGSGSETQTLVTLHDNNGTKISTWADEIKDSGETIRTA
# cynoTIM-3/Fc [8] = biological target: T2, cynoTIM-3/Fc; experiment: SPR (Biacore), run 3
# cynoTIM-3/Fc [9] = biological target: T2, cynoTIM-3/Fc; experiment: SPR (Biacore), mean KD
# cynoTIM-3/Fc [10] = biological target: T2, cynoTIM-3/Fc; experiment: SPR (Biacore), run 1; run 1 of three; cynoTIM-3/Fc
# huTIM-3/his [11] = biological target: T4, huTIM-3/his (human, UniProt Q8TDQ0 22-202); experiment: SPR (Biacore), run 1
# T4 construct: also called hTIM-3/his antigen
# cynoTIM-3/Fc [12] = biological target: T2, cynoTIM-3/Fc; experiment: SPR (Biacore), run 1
# huTIM-3/his [13] = biological target: T4, huTIM-3/his; experiment: SPR (Biacore), run 2
# huTIM-3/his [14] = biological target: T4, huTIM-3/his; experiment: SPR (Biacore), run 3
# ratTIM-3/Fc [15] = biological target: T3, ratTIM-3/Fc; experiment: SPR (Biacore), run 3
# huTIM-3/his [16] = biological target: T4, huTIM-3/his; experiment: SPR (Biacore), mean KD
# [17] = biological target: T5, human TIM-3 expressed on cells (human, UniProt Q8TDQ0 22-301); experiment: flow cytometry on cells expressing human TIM-3
# T5 construct: also called huTIM-3; hTIM-3
# huTIM-3/his [18] = biological target: T4, huTIM-3/his; experiment: Biacore, 2nd antibody injection; 1st antibody (competitor) huIgG1
# huTIM-3/his [19] = biological target: T4, huTIM-3/his; experiment: Biacore, 2nd antibody injection; 1st antibody (competitor) ABTIM3-hum03
# huTIM-3/his [20] = biological target: T4, huTIM-3/his; experiment: Biacore, 2nd antibody injection; 1st antibody (competitor) ABTIM3-hum21
# [21] = biological target: T5, human TIM-3 expressed on cells; experiment: flow cytometry, 300.19 huTIM3 cells, detected by secondary Ab-FITC
# [22] = biological target: T5, human TIM-3 expressed on cells; experiment: flow cytometry competition on 300.19 hTIM-3 cells against PE-labelled ABTIM3-hum21
# [23] = biological target: T5, human TIM-3 expressed on cells; experiment: flow cytometry competition on 300.19 hTIM3 cells in presence of ABTIM3; signal is MFI of 0.51ug/ml 22C1-PE
binder,measurement,setting,value
B1,Kd,[1],269 pM
same,Kd,[2],174 pM
same,Kd,[3],308 pM
B2,Kd,[1],114 pM
same,Kd,[4],103 pM
same,Kd,[2],230 pM and 193 pM
same,IC50 (read off the curve),[5],~0.2 µg/mL
B3,Kd,cynoTIM-3/Fc [6],3890 pM
same,Kd,ratTIM-3/Fc [7],51000 pM
same,Kd,cynoTIM-3/Fc [8],3080 pM
same,Kd,cynoTIM-3/Fc [9],2670 pM
same,Kd,cynoTIM-3/Fc [10],1040 pM
B4,Kd,[4],216 pM
same,Kd,[2],172 pM
same,IC50 (read off the curve),[5],~0.2 µg/mL
B5,Kd,[1],279 pM
same,Kd,[2],332 pM
same,Kd,[3],313 pM
B6,Kd,[1],214 pM
same,Kd,[2],364 pM
same,Kd,[3],498 pM
B7,Kd,[1],199 pM
same,Kd,[4],135 pM
same,Kd,[2],196 pM
same,IC50 (read off the curve),[5],~0.2 µg/mL
B8,Kd,[1],309 pM
same,Kd,[4],123 pM
same,Kd,[2],175 pM
same,IC50 (read off the curve),[5],~0.2 µg/mL
B9,Kd,huTIM-3/his [11],155 pM
same,Kd,cynoTIM-3/Fc [12],1240 pM
same,Kd,huTIM-3/his [13],226 pM
same,Kd,cynoTIM-3/Fc [6],3140 pM
same,Kd,huTIM-3/his [14],109 pM
same,Kd,cynoTIM-3/Fc [8],5040 pM
same,Kd,ratTIM-3/Fc [15],297000 pM
same,Kd,huTIM-3/his [16],163 pM
same,Kd,cynoTIM-3/Fc [9],3140 pM
same,Kd,[2],194 pM
same,Kd,[17],906 pM
same,change in RU,huTIM-3/his [18],83.2 RU
same,change in RU,huTIM-3/his [19],8.5 RU
same,change in RU,huTIM-3/his [20],8.1 RU
same,EC50 (read off the curve),[21],~0.1 µg/mL
same,IC50 (read off the curve),[22],~0.4 µg/mL
same,IC50 (read off the curve),[23],~0.2 µg/mL
B10,Kd,[17],917 pM
same,change in RU,huTIM-3/his [20],6.6 RU
same,IC50 (read off the curve),[22],~0.4 µg/mL
B11,Kd,[2],161 pM
B12,Kd,[2],107 pM
B13,Kd,[2],355 pM
